From publication PMC5487423 (2017)
Numbering of substitutions follows the chain as printed. Like-named read-outs stand apart in the source and are kept apart here.

How the values were obtained:
Assay in all cases: BLI
[1] = target: CCL24_MOUSE
[2] = target: CCL15_HUMAN
[3] = target: CCL12_MOUSE
[4] = target: CCL23_HUMAN
[5] = target: CCL8_MOUSE
[6] = target: CCL27_MOUSE
[7] = target: CCL19_MOUSE
[8] = target: CCL6_MOUSE
[9] = target: CCL27_HUMAN
[10] = target: CCL9_MOUSE
[11] = target: T1, CCL4_HUMAN (Homo sapiens)
T1 chain: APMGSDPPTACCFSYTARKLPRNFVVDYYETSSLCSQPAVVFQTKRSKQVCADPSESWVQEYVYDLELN

[12] = target: CCL13_HUMAN (Homo sapiens)
[13] = target: T2, CCL4L1_HUMAN (Homo sapiens)
T2 chain: T1 chain with S47G

[14] = target: T3, CCL5 (human, UniProt P13501 24-91)
T3 chain: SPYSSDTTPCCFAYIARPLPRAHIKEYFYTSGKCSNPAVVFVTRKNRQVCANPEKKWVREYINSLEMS

[15] = target: T4, CCL3L1_HUMAN (Homo sapiens)
T4 chain: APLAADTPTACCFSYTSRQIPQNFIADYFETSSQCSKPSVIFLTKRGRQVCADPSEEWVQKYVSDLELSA

[16] = target: T5, CCL17_HUMAN (Homo sapiens)
T5 chain: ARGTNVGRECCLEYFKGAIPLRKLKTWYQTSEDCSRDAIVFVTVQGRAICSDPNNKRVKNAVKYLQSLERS

[17] = target: CCL11 (human, UniProt P51671 24-97)
[18] = target: T6, CCL19_HUMAN (Homo sapiens)
T6 chain: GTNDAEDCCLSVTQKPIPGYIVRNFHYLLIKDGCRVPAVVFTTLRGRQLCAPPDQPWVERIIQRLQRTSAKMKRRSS

[19] = target: T7, CCL24_HUMAN (Homo sapiens)
T7 chain: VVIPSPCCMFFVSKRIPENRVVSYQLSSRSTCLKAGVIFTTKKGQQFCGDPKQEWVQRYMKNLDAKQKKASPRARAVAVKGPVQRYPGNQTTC

[20] = target: T8, CCL16_HUMAN (Homo sapiens)
T8 chain: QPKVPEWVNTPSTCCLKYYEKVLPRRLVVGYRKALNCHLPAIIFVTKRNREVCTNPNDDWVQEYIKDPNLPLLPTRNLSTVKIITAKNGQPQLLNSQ

[21] = target: T9, CCL22_HUMAN (Homo sapiens)
T9 chain: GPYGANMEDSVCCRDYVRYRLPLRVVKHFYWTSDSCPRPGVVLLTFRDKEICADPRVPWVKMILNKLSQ

[22] = target: T10, CCL14_HUMAN (Homo sapiens)
T10 chain: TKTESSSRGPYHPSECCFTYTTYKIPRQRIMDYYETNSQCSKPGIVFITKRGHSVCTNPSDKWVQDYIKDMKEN

[23] = target: CCL7 (human, UniProt P80098 24-99)
[24] = target: T11, CCL8 (human, UniProt P80075 24-99)
T11 chain: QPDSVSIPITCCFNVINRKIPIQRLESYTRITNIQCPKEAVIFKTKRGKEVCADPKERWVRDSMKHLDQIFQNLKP

[25] = target: CCL2 (human, UniProt P13500 24-99)
[26] = target: T12, CCL18_HUMAN (Homo sapiens)
T12 chain: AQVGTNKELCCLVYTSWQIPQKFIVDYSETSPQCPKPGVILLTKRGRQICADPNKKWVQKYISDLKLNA

[27] = target: T13, CCL3 (human, UniProt P10147 24-92)
T13 chain: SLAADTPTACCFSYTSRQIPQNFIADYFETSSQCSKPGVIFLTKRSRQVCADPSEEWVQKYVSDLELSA

[28] = target: T2, CCL4L1_HUMAN

Sequence of CCL11 (P51671 24-97): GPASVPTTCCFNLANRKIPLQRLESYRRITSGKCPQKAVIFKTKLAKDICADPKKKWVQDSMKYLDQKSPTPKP
Sequence of CCL2 (P13500 24-99): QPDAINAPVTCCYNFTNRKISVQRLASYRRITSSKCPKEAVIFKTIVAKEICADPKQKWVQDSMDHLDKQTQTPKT
Sequence of CCL7 (P80098 24-99): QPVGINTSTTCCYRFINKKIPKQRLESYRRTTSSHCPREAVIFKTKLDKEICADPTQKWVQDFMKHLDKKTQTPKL
Sequence of CCL13_HUMAN (Homo sapiens) (chain, as listed by the source): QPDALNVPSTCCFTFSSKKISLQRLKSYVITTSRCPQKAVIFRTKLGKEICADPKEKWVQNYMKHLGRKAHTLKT

B1: P991_AMBCA, purified, C-terminal StrepII-8xHis tag (natural protein)
chain: ETGENGEGTTQPDYDNSTDYYNYEDFKCTCPAPHLNNTNGTVMKPIGCYYTCNVTRCTAPDTYPCYNLTEHQAKNLTTSPTTLCAVGNCDHGICVPNGTKELCFKAPNLEE
[1]
  Kd: 3.16 nM
[2]
  Kd: 159 nM
[3]
  Kd: 7.47 nM
[4]
  Kd: 5.58 nM
[5]
  Kd: 4.83 nM
[6]
  Kd: 58 nM
[7]
  Kd: 4.81 nM
[8]
  Kd: 1.52 nM
[9]
  Kd: 38.9 nM
[10]
  Kd: 13.3 nM
[11]
  Kd: 5.8 nM
[12]
  Kd: 0.42 nM
[13]
  Kd: 0.83 nM
[14]
  Kd: 1.5 nM
[15]
  Kd: 1.4 nM
[16]
  Kd: 7.7 nM
[17]
  Kd: 3.4 nM
[18]
  Kd: 14 nM
[19]
  Kd: 6.5 nM
[20]
  Kd: 1.3 nM
[21]
  Kd: 4 nM
[22]
  Kd: 0.43 nM
[23]
  Kd: 0.51 nM
[24]
  Kd: 8.8 nM
[25]
  Kd: 12 nM
[26]
  Kd: 0.21 nM
[27]
  Kd: 1.1 nM
[28]
  Kd: 0.827 nM
